Numbering of substitutions follows the chain as printed. Non-standard residues stand in square brackets, D forms with d. No end group written: not given here. Aib = CC(C)(N)C(=O)O
B1: Compound 7 (peptide)
peptide: Y[Aib]EGTVVSFYSI[Aib]LDKQAQ[Aib]EFVKWLLKGGPSSGAPPPSK-NH2
modifications: N-terminus assumed
SMILES: CC[C@H](C)[C@H](NC(=O)[C@H](CO)NC(=O)[C@H](Cc1ccc(O)cc1)NC(=O)[C@H](Cc1ccccc1)NC(=O)[C@H](CO)NC(=O)[C@@H](NC(=O)[C@@H](NC(=O)[C@@H](NC(=O)CNC(=O)[C@H](CCC(=O)O)NC(=O)C(C)(C)NC(=O)[C@@H](N)Cc1ccc(O)cc1)[C@@H](C)O)C(C)C)C(C)C)C(=O)NC(C)(C)C(=O)N[C@@H](CC(C)C)C(=O)N[C@@H](CC(=O)O)C(=O)N[C@@H](CCCCN)C(=O)N[C@@H](CCC(N)=O)C(=O)N[C@@H](C)C(=O)N[C@@H](CCC(N)=O)C(=O)NC(C)(C)C(=O)N[C@@H](CCC(=O)O)C(=O)N[C@@H](Cc1ccccc1)C(=O)N[C@H](C(=O)N[C@@H](CCCCN)C(=O)N[C@@H](Cc1c[nH]c2ccccc12)C(=O)N[C@@H](CC(C)C)C(=O)N[C@@H](CC(C)C)C(=O)N[C@@H](CCCCN)C(=O)NCC(=O)NCC(=O)N1CCC[C@H]1C(=O)N[C@@H](CO)C(=O)N[C@@H](CO)C(=O)NCC(=O)N[C@@H](C)C(=O)N1CCC[C@H]1C(=O)N1CCC[C@H]1C(=O)N1CCC[C@H]1C(=O)N[C@@H](CO)C(=O)N[C@@H](CCCCN)C(N)=O)C(C)C
B2: Compound 8 (peptide)
peptide: Y[Aib]EGTVKSDYSI[Aib]LDKQAQ[Aib]EFVKWLLKGGPSSGAPPPSK-NH2
modifications: N-terminus assumed
SMILES: CC[C@H](C)[C@H](NC(=O)[C@H](CO)NC(=O)[C@H](Cc1ccc(O)cc1)NC(=O)[C@H](CC(=O)O)NC(=O)[C@H](CO)NC(=O)[C@H](CCCCN)NC(=O)[C@@H](NC(=O)[C@@H](NC(=O)CNC(=O)[C@H](CCC(=O)O)NC(=O)C(C)(C)NC(=O)[C@@H](N)Cc1ccc(O)cc1)[C@@H](C)O)C(C)C)C(=O)NC(C)(C)C(=O)N[C@@H](CC(C)C)C(=O)N[C@@H](CC(=O)O)C(=O)N[C@@H](CCCCN)C(=O)N[C@@H](CCC(N)=O)C(=O)N[C@@H](C)C(=O)N[C@@H](CCC(N)=O)C(=O)NC(C)(C)C(=O)N[C@@H](CCC(=O)O)C(=O)N[C@@H](Cc1ccccc1)C(=O)N[C@H](C(=O)N[C@@H](CCCCN)C(=O)N[C@@H](Cc1c[nH]c2ccccc12)C(=O)N[C@@H](CC(C)C)C(=O)N[C@@H](CC(C)C)C(=O)N[C@@H](CCCCN)C(=O)NCC(=O)NCC(=O)N1CCC[C@H]1C(=O)N[C@@H](CO)C(=O)N[C@@H](CO)C(=O)NCC(=O)N[C@@H](C)C(=O)N1CCC[C@H]1C(=O)N1CCC[C@H]1C(=O)N1CCC[C@H]1C(=O)N[C@@H](CO)C(=O)N[C@@H](CCCCN)C(N)=O)C(C)C
B3: Compound 10 (peptide)
peptide: Y[Aib]EGTVKSDYSILLDKQAQ[Aib]EFVKWLLKGGPSSGAPPPSK-NH2
modifications: N-terminus assumed
SMILES: CC[C@H](C)[C@H](NC(=O)[C@H](CO)NC(=O)[C@H](Cc1ccc(O)cc1)NC(=O)[C@H](CC(=O)O)NC(=O)[C@H](CO)NC(=O)[C@H](CCCCN)NC(=O)[C@@H](NC(=O)[C@@H](NC(=O)CNC(=O)[C@H](CCC(=O)O)NC(=O)C(C)(C)NC(=O)[C@@H](N)Cc1ccc(O)cc1)[C@@H](C)O)C(C)C)C(=O)N[C@@H](CC(C)C)C(=O)N[C@@H](CC(C)C)C(=O)N[C@@H](CC(=O)O)C(=O)N[C@@H](CCCCN)C(=O)N[C@@H](CCC(N)=O)C(=O)N[C@@H](C)C(=O)N[C@@H](CCC(N)=O)C(=O)NC(C)(C)C(=O)N[C@@H](CCC(=O)O)C(=O)N[C@@H](Cc1ccccc1)C(=O)N[C@H](C(=O)N[C@@H](CCCCN)C(=O)N[C@@H](Cc1c[nH]c2ccccc12)C(=O)N[C@@H](CC(C)C)C(=O)N[C@@H](CC(C)C)C(=O)N[C@@H](CCCCN)C(=O)NCC(=O)NCC(=O)N1CCC[C@H]1C(=O)N[C@@H](CO)C(=O)N[C@@H](CO)C(=O)NCC(=O)N[C@@H](C)C(=O)N1CCC[C@H]1C(=O)N1CCC[C@H]1C(=O)N1CCC[C@H]1C(=O)N[C@@H](CO)C(=O)N[C@@H](CCCCN)C(N)=O)C(C)C
B4: Compound 6 (peptide)
peptide: Y[Aib]EGTVVSLYSI[Aib]LDKQAQ[Aib]EFVKWLLKGGPSSGAPPPSK-NH2
modifications: N-terminus assumed
SMILES: CC[C@H](C)[C@H](NC(=O)[C@H](CO)NC(=O)[C@H](Cc1ccc(O)cc1)NC(=O)[C@H](CC(C)C)NC(=O)[C@H](CO)NC(=O)[C@@H](NC(=O)[C@@H](NC(=O)[C@@H](NC(=O)CNC(=O)[C@H](CCC(=O)O)NC(=O)C(C)(C)NC(=O)[C@@H](N)Cc1ccc(O)cc1)[C@@H](C)O)C(C)C)C(C)C)C(=O)NC(C)(C)C(=O)N[C@@H](CC(C)C)C(=O)N[C@@H](CC(=O)O)C(=O)N[C@@H](CCCCN)C(=O)N[C@@H](CCC(N)=O)C(=O)N[C@@H](C)C(=O)N[C@@H](CCC(N)=O)C(=O)NC(C)(C)C(=O)N[C@@H](CCC(=O)O)C(=O)N[C@@H](Cc1ccccc1)C(=O)N[C@H](C(=O)N[C@@H](CCCCN)C(=O)N[C@@H](Cc1c[nH]c2ccccc12)C(=O)N[C@@H](CC(C)C)C(=O)N[C@@H](CC(C)C)C(=O)N[C@@H](CCCCN)C(=O)NCC(=O)NCC(=O)N1CCC[C@H]1C(=O)N[C@@H](CO)C(=O)N[C@@H](CO)C(=O)NCC(=O)N[C@@H](C)C(=O)N1CCC[C@H]1C(=O)N1CCC[C@H]1C(=O)N1CCC[C@H]1C(=O)N[C@@H](CO)C(=O)N[C@@H](CCCCN)C(N)=O)C(C)C
B5: Compound 473 (peptide)
peptide: YXEGTXISDYSIXXDRXAQXNFVNWXLAQRPSSGAPPPSR
modifications: N-methyl on Tyr1 (Me-Tyr); Aib at 2, 13, 17, 20; Iva at 6, 26; Lys(Eda-GGGGG-) at 14; C-terminal NH2
B6: Compound 506 (peptide)
peptide: B5 peptide
modifications: N-methyl on Tyr1 (Me-Tyr); Aib at 2, 13, 17, 20; Iva at 6, 26; Lys(Hepda-GGGGGG-) at 14; C-terminal NH2
B7: Compound 522 (peptide)
peptide: B5 peptide with X6F, X13A, A18H
modifications: not fully specified; N-methyl on Tyr1 (Me-Tyr); Aib at 2, 13, 17, 20; Iva at 6, 26; Lys(Eda-GGGGGG-) at 14; C-terminal NH2
B8: Compound 520 (peptide)
peptide: B5 peptide
modifications: N-methyl on Tyr1 (Me-Tyr); Aib at 2, 13, 17, 20; Iva at 6, 26; Lys(Eda-GGGGGG-) at 14; C-terminal NH2
B9: Compound 479 (peptide)
peptide: B5 peptide
modifications: N-methyl on Tyr1 (Me-Tyr); Aib at 2, 13, 17, 20; Iva at 6, 26; Lys(Oda-GGGGGG-) at 14; C-terminal NH2
B10: Compound 445 (peptide)
peptide: YXEGTXISDYSIXXDRXAQXNFVNWXLAQRPSSGAPPPS
modifications: N-methyl on Tyr1 (Me-Tyr); Aib at 2, 13, 17, 20; Iva at 6, 26; Lys(Heda-GGGGG-) at 14; C-terminal NH2
B11: Compound 493 (peptide)
peptide: B10 peptide with X14L, A18H
modifications: N-methyl on Tyr1 (Me-Tyr); Aib at 2, 13, 20; Iva at 6, 26; Lys(Eda-GGGGG-) at 17; C-terminal NH2
B12: Compound 521 (peptide)
peptide: B10 peptide with A18H
modifications: N-methyl on Tyr1 (Me-Tyr); Aib at 2, 13, 17, 20; Iva at 6, 26; Lys(Eda-GGGGGG-) at 14; C-terminal NH2
B13: Compound 510 (peptide)
peptide: B10 peptide with A18H
modifications: N-methyl on Tyr1 (Me-Tyr); Aib at 2, 13, 17, 20; Iva at 6, 26; Lys(Hepda-GGGGGG-) at 14; C-terminal NH2
B14: Compound 509 (peptide)
peptide: B10 peptide with A18H
modifications: N-methyl on Tyr1 (Me-Tyr); Aib at 2, 13, 17, 20; Iva at 6, 26; Lys(Heda-GGGGGG-) at 14; C-terminal NH2
B15: Compound 457 (peptide)
peptide: B10 peptide
modifications: N-methyl on Tyr1 (Me-Tyr); Aib at 2, 13, 17, 20; Iva at 6, 26; Lys(Heda-GGGGGG-) at 14; C-terminal NH2
B16: Compound 465 (peptide)
peptide: B10 peptide
modifications: N-methyl on Tyr1 (Me-Tyr); Aib at 2, 13, 17, 20; Iva at 6, 26; Lys(Hepda-GGGGG-) at 14; C-terminal NH2
B17: Compound 459 (peptide)
peptide: B10 peptide
modifications: N-methyl on Tyr1 (Me-Tyr); Aib at 2, 13, 17, 20; Iva at 6, 26; Lys(Hda-GGGGG-) at 14; C-terminal NH2
B18: Compound 466 (peptide)
peptide: B10 peptide
modifications: N-methyl on Tyr1 (Me-Tyr); Aib at 2, 13, 17, 20; Iva at 6, 26; Lys(Hepda-GGGGGG-) at 14; C-terminal NH2
B19: Compound 491 (peptide)
peptide: B10 peptide with X14L, A18H
modifications: N-methyl on Tyr1 (Me-Tyr); Aib at 2, 13, 20; Iva at 6, 26; Lys(Oda-GGGGG-) at 17; C-terminal NH2
B20: Compound 502 (peptide)
peptide: B10 peptide with X14L, A18H
modifications: N-methyl on Tyr1 (Me-Tyr); Aib at 2, 13, 20; Iva at 6, 26; Lys(Hepda-GGGGG-) at 17; C-terminal NH2
B21: Compound 494 (peptide)
peptide: B10 peptide with X14L
modifications: N-methyl on Tyr1 (Me-Tyr); Aib at 2, 13, 20; Iva at 6, 26; Lys(Heda-GGGGGG-) at 17; C-terminal NH2
B22: Compound 492 (peptide)
peptide: B10 peptide with X14L, A18H
modifications: N-methyl on Tyr1 (Me-Tyr); Aib at 2, 13, 20; Iva at 6, 26; Lys(Oda-GGGGGG-) at 17; C-terminal NH2
B23: Compound 496 (peptide)
peptide: B10 peptide with X14L
modifications: N-methyl on Tyr1 (Me-Tyr); Aib at 2, 13, 20; Iva at 6, 26; Lys(Oda-GGGGGG-) at 17; C-terminal NH2
B24: Compound 484 (peptide)
peptide: B10 peptide with A18H
modifications: N-methyl on Tyr1 (Me-Tyr); Aib at 2, 13, 17, 20; Iva at 6, 26; Lys(Oda-GGGGGG-) at 14; C-terminal NH2
B25: Compound 475 (peptide)
peptide: B10 peptide with A18H
modifications: N-methyl on Tyr1 (Me-Tyr); Aib at 2, 13, 17, 20; Iva at 6, 26; Lys(Eda-GGGGG-) at 14; C-terminal NH2
B26: Compound 504 (peptide)
peptide: B10 peptide with X14L, A18H
modifications: N-methyl on Tyr1 (Me-Tyr); Aib at 2, 13, 20; Iva at 6, 26; Lys(Hepda-GGGGGG-) at 17; C-terminal NH2
B27: Compound 507 (peptide)
peptide: B10 peptide with A18H
modifications: N-methyl on Tyr1 (Me-Tyr); Aib at 2, 13, 17, 20; Iva at 6, 26; Lys(Heda-GGGGG-) at 14; C-terminal NH2
B28: Compound 503 (peptide)
peptide: B10 peptide with X14L, A18H
modifications: N-methyl on Tyr1 (Me-Tyr); Aib at 2, 13, 20; Iva at 6, 26; Lys(Heda-GGGGGG-) at 17; C-terminal NH2
B29: Compound 508 (peptide)
peptide: B10 peptide with A18H
modifications: N-methyl on Tyr1 (Me-Tyr); Aib at 2, 13, 17, 20; Iva at 6, 26; Lys(Hepda-GGGGG-) at 14; C-terminal NH2
B30: Compound 495 (peptide)
peptide: B10 peptide with X14L
modifications: N-methyl on Tyr1 (Me-Tyr); Aib at 2, 13, 20; Iva at 6, 26; Lys(Hepda-GGGGGG-) at 17; C-terminal NH2

Each binder was assayed against human GLP-1R (human, UniProt P43220) (assay: cell-based or functional assay).

Binder | Agonist activity (EC50, M) [M]
B1 | > 1e-06
B2 | > 1e-06
B3 | > 1e-06
B4 | > 1e-06

Target: human GLP-1R (human, UniProt P43220)
Assay: cell-based or functional assay
Remark: another data set of the same source

Binder | Agonist activity (EC50, M) [M]
B5 | > 1e-06
B6 | > 1e-06
B7 | > 1e-06
B8 | > 1e-06
B9 | > 1e-06
B10 | > 1e-06
B11 | > 1e-06
B12 | > 1e-06
B13 | > 1e-06
B14 | > 1e-06
B15 | > 1e-06
B16 | > 1e-06
B17 | > 1e-06
B18 | > 1e-06
B19 | > 1e-06
B20 | > 1e-06
B21 | > 1e-06
B22 | > 1e-06
B23 | > 1e-06
B24 | > 1e-06
B25 | > 1e-06
B26 | > 1e-06
B27 | > 1e-06
B28 | > 1e-06
B29 | > 1e-06
B30 | > 1e-06
